The target in this test is T1, Ste2 (yeast) (UniProt D6VTK4).
T1 sequence (looked up): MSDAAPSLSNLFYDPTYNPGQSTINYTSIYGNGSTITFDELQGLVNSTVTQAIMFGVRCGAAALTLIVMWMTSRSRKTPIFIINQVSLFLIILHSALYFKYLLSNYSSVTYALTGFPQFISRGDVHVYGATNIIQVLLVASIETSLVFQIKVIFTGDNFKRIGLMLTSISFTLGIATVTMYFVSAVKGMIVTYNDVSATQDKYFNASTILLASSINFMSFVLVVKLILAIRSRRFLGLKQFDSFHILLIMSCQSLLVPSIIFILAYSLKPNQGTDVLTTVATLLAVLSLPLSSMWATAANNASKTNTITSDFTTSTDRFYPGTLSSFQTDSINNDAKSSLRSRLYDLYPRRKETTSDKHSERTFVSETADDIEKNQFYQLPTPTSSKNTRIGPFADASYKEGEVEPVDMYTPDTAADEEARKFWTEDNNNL
Briefly: cell-based or functional assay.

The substance “α-factor (from UniProt P01149 90-102) (peptide)” came in with a Maximum Fold Induction, lacZ assay, Fus1p-lacZ reporter, ligand incubation 1 hr, Gα GPA1 of 22 fold; a Maximum Fold Induction, lacZ assay, Fus1p-lacZ reporter, ligand incubation 2 hrs, Gα GPA1 of 123 fold; a Maximum Fold Induction, lacZ assay, Fus1p-lacZ reporter, ligand incubation 3 hrs, Gα GPA1 of 218 fold; a Maximum Fold Induction, lacZ assay, LBF system (p8op-lacZ reporter), ligand incubation 1 hr, Gα GPA1 of 29 fold. Besides, the Maximum Fold Induction, lacZ assay, LBF system (p8op-lacZ reporter), ligand incubation 2 hrs, Gα GPA1 came to 63 fold and the Maximum Fold Induction, lacZ assay, LBF system (p8op-lacZ reporter), ligand incubation 3 hrs, Gα GPA1 is 36 fold.

(Values after patent publication US20030170760A1.)
